From article PMC5111884, “NPAS1-ARNT and NPAS3-ARNT crystal structures implicate the bHLH-PAS family as multi-ligand binding transcription factors”

Columns and labels:
NPAS3;ARNT = NPAS3;ARNT (mouse;mouse?, UniProt Q9QZQ0;P53762 56-455;82-464, |); assay: fluorescence anisotropy; FP: 2 nM DNA, 20 mM Tris pH 8.0, 50 mM NaCl, 10 mM DTT, 30 min, temperature not stated (DNA annealed in 10 mM Tris pH 7.5, 1 mM EDTA, 2 mM MgCl2); conditions: protein: recombinant;recombinant; tags: vector pSJ2; copies: 1;1; blunt
NPAS3;ARNT, sequence (Q9QZQ0 56-455, chain 1 of 2): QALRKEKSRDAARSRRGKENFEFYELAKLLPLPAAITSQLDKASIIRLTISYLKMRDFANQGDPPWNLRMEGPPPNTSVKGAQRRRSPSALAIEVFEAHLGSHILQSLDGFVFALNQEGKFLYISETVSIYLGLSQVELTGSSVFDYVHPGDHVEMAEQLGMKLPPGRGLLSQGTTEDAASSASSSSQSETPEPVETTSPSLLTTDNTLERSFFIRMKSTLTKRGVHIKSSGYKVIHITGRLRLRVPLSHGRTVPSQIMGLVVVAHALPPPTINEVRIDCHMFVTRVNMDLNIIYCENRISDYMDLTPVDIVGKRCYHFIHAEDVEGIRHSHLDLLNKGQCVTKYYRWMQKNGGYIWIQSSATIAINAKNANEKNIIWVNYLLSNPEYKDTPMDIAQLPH
NPAS3;ARNT, sequence (P53762 82-464, chain 2 of 2): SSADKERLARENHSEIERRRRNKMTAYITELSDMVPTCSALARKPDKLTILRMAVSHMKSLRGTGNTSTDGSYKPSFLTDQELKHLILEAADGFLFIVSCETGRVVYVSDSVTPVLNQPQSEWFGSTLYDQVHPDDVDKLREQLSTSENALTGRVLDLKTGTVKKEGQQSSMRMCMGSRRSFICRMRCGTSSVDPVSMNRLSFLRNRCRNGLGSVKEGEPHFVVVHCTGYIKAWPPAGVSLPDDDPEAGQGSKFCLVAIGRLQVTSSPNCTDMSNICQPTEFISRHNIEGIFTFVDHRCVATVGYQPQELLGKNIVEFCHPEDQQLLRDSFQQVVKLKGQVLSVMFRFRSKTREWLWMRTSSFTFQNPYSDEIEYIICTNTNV

NPAS1;ARNT = NPAS1;ARNT (mouse;mouse?, UniProt A2RSH6;P53762 43-423;82-464, |); assay: as above; conditions: protein: recombinant;recombinant; tags: vector pSJ2; copies: 1;1; blunt
NPAS1;ARNT, sequence (chain, as listed by the source |, chain 1 of 2): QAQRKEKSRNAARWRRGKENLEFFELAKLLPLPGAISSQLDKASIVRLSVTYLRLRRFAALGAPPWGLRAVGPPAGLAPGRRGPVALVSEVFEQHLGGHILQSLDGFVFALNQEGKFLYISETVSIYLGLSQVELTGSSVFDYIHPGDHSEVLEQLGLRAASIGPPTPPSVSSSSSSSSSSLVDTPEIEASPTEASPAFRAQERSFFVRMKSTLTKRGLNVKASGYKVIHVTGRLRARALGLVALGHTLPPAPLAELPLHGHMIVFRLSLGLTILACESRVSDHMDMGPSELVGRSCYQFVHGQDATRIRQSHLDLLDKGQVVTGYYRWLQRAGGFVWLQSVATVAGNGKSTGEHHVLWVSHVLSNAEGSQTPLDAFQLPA
NPAS1;ARNT, sequence (P53762 82-464, chain 2 of 2): as the sequence (P53762 82-464, chain 2 of 2) above

B1: HRE 21-mer (FP probe) (dsDNA)
DNA 1: GGCTGCGTACGTGCGGGTCGT
DNA 2: ACGACCCGCACGTACGCAGCC
Q: With B1 as the binder, how does the Kd (NPAS3;ARNT) read?
A: Its Kd is 0.0175 ± 0.0011 µM.

Q: What about the Kd (NPAS1;ARNT) of the same binder?
A: The Kd was 0.0163 ± 0.0011 µM.
